Test results as given in patent US20120039897A1 (PHILIPPS UNIVERSITAET MARBURG, published 2012).
Substitutions are numbered along the chain they refer to.

B1: recombinant Aβ(21-37) autoantibody 54/62 (antibody, V domains shown)
VH: EVQLVESGGGVVQPGGSLRLSCAASGFTFSSYWMSWVRQAPGKGLEWVASVKQDGSEKYYVDSVKGRFTISRDNAKNTLYLQMNSLRAEDTAVYYCARDGSSWYRDWFDPWGQGTLVTVS
VL: DIVLTQSPATLSLSPGERVTITCRASQSVNSYLAWYQQKPGQAPRLLIYGASTRATGIPDRFSGSGSGTDFTLTISRLEPEDFAVYYCQQYGSSQGTFGPGTKVDIKR
B2: recombinant Aβ(21-37) autoantibody 50/67 (antibody, V domains shown)
VH: EVQLVESGGGVVQPGGSLRLSCAASGFTFRSYWMHWVRQAPGKGLEWVASVKQDGSEKYYVDSVKGRVTISLDTSKNQFSLKLSSVTAADTAVYYCARDGSSWYRDWFDPWGQGTLVSVS
VL: B1 VL with V3Q, L4M, V19A, T20A, I21L, T22S, S52A, T53S, D60A
B3: recombinant Aβ(21-37) autoantibody 55/68 (antibody, V domains shown)
VH: EVQLVESGGGVVQPGGSLRLSCAASGITFRSYDMSWVRQAPGKGLEWVASVKQDGSEKYYVDSVKGRFTVSRDNAKNTLYLQMNSLRAEDTAVYYCARDAGRWADLAFDIWGQGTLVTVS
VL: B1 VL with V3Q, L4M, A9G, V19A, T20A, I21L, T22S, N30S, G50A, T53I
B4: recombinant Aβ(21-37) autoantibody 50/62 (antibody, V domains shown)
VH: B1 VH
VL: B1 VL with V3Q, L4M, V19A, T20A, I21L, T22S, S52A, T53S, D60A
B5: recombinant Aβ(21-37) autoantibody 47/56 (antibody, V domains shown)
VH: B1 VH with S30R, N74T, A75S, G100A
VL: B1 VL with D1E
B6: recombinant Aβ(21-37) autoantibody 51/62 (antibody, V domains shown)
VH: B1 VH
VL: B1 VL with D1E, A25E, S28G, V29I, N30R, S31N
B7: recombinant Aβ(21-37) autoantibody 55/62 (antibody, V domains shown)
VH: B1 VH
VL: B1 VL with V3Q, L4M, A9G, V19A, T20A, I21L, T22S, N30S, G50A, T53I
B8: recombinant Aβ(21-37) autoantibody 50/69 (antibody, V domains shown)
VH: B1 VH with S30R, S35H, F68V, S71T, R72A, N74R
VL: B1 VL with V3Q, L4M, V19A, T20A, I21L, T22S, S52A, T53S, D60A
B9: recombinant Aβ(21-37) autoantibody 50/68 (antibody, V domains shown)
VH: B3 VH
VL: B1 VL with V3Q, L4M, V19A, T20A, I21L, T22S, S52A, T53S, D60A
B10: recombinant Aβ(21-37) autoantibody 54/68 (antibody, V domains shown)
VH: B3 VH
VL: B1 VL
B11: recombinant Aβ(21-37) autoantibody 55/69 (antibody, V domains shown)
VH: B1 VH with S30R, S35H, F68V, S71T, R72A, N74R
VL: B1 VL with V3Q, L4M, A9G, V19A, T20A, I21L, T22S, N30S, G50A, T53I

Target: amyloid β peptide (antigen of the EIA of Table 2)
Sequence (peptide, as listed by the source): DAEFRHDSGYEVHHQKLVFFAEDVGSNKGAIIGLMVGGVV
Assay: ELISA (EIA), amyloid β peptide immobilised; legend: (-) indicates no binding
Protocol: (§1) All transfectants that expressed immunoglobulin efficiently were tested in an ELISA based on binding to amyloid β peptide. Biosensor data is ranked on a qualitative affinity binding assessment of the antibody to the cys-dimer peptide as described below.
Aβ(1-40) monomer, Aβ(1-40) oligomer, Aβ(1-40 Cys) oligomer, and control plate using bovine serum albumin (Sigma) or Aprotinin (Sigma) were immobilized at 1 μg/ml in PBS (50 μl per well) on a Nunc Maxisorb 96-well plate overnight at 4° C. Wells were washed once with 350 μl Wash Buffer (1×PBS, 0.05% (v/v) Tween-20 (Sigma)). Wells were then blocked with Blocking Buffer (2% (w/v) Difco Skim milk (BD) in PBS, 50-150 μl per well) for 2 hours at room-temperature and washed once with 350 μl Wash Buffer.

Binder	binding result
B1	no binding (tested: 100 µg/ml starting concentration)
B2	no binding (tested: 100 µg/ml starting concentration)
B3	no binding (tested: 100 µg/ml starting concentration)
B4	no binding (tested: 100 µg/ml starting concentration)
B5	no binding (tested: 100 µg/ml starting concentration)
B6	no binding (tested: 100 µg/ml starting concentration)
B7	no binding (tested: 100 µg/ml starting concentration)
B8	no binding (tested: 100 µg/ml starting concentration)
B9	no binding (tested: 100 µg/ml starting concentration)
B10	no binding (tested: 100 µg/ml starting concentration)
B11	no binding (tested: 100 µg/ml starting concentration)

Target: T1, Aβ(1-40 Cys) oligomer (Example 12A)
T1 construct: also called Aβ(1-40 Cys) dimer; cys-dimer peptide
T1 sequence (peptide, as listed by the source): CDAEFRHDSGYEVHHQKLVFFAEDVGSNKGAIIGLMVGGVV
Assay: Biacore, antibody captured on anti-human Ig chip, cys-dimer peptide injected; legend: (-) indicates no binding
Protocol: as §1
(§2) An anti-human immunoglobulin biosensor chip was prepared using a human antibody capture kit (Biacore, Sweden) as per manufacturer's instructions at flow rate of 5 μl/min with a 6 minute contact time during […] immobilisation. Approximately 10000 resonance units were achieved on all channels.

Binder	binding result
B1	no binding (tested: peptide 20-50 µg/ml)
B2	no binding (tested: peptide 20-50 µg/ml)
B3	no binding (tested: peptide 20-50 µg/ml)
B4	no binding (tested: peptide 20-50 µg/ml)
B6	no binding (tested: peptide 20-50 µg/ml)
B7	no binding (tested: peptide 20-50 µg/ml)
B9	no binding (tested: peptide 20-50 µg/ml)
B10	no binding (tested: peptide 20-50 µg/ml)
B11	no binding (tested: peptide 20-50 µg/ml)

Target: T2, Aβ(1-40) monomer (Example 12A)
T2 construct: Sigma peptide, HFIP treated, kept in DMSO
Assay: Biacore, antibody captured on anti-human Ig chip, peptide injected
Protocol: as §2

Binder	binding result
B5	no binding

Target: T1, Aβ(1-40 Cys) oligomer (Example 12A)
Assay: as above
Protocol: as §2

Binder	binding result
B5	no binding
